The target of the test is T1, recombinant TNFRSF9 protein (Homo sapiens (Human), UniProt Q07011 24-186).
T1 construct: also called 4-1BB; antigen
The experiment in a line: indirect ELISA, plate coated with 0.5 ug/ml recombinant TNFRSF9 protein, antibody titrated 3-fold from 1 ug/ml. A general note: ELISA stands for enzyme-linked immunosorbent assay.

The term EC50 denotes the concentration that produces a half-maximal response.

Method: The antibody affinity detection method was an enzyme-linked immunosorbent assay (ELISA) based on an indirect method. Indirect ELISA was used for evaluating the ability of the purified antibody to bind the antigen TNFRSF9 protein. The specific steps were as follows: the ELISA plate was coated with 0.5 μg/ml recombinant TNFRSF9 protein in PBS at 100 μl/well at 4° C. overnight. The plate was washed with PBS-T (0.05% Tween) and blocked with 250 μl/well of PBST containing 1% BSA at 37° C. for 2 hours. Subsequently, the blocking solution was discarded, and 100 μl of the 1 μg/ml purified antibody was added to the first well and 3-fold diluted in a gradient to prepare a total of 11 serial test concentrations, and additionally a blank well was prepared. The plate was then incubated at 37° C. for 1 hour. […] The plate was washed four times with PBST, a TMB color development solution (GenScript) was then added, and the plate was incubated in the dark at 25° C. for 15 minutes. […] The plate was read at 450 nm using a microplate reader.

B1: 81E11WTH (antibody, V domains shown)
VH: QSVKESEGGLFKPTDTLTLACTVSGFSLSYNAITWVRQAPGNGLEWIGVINYDGTTVYASWAKSRSTITRNTNLNTVTLKMTSLTAADTATYFCARNFNIWGPGTLVTVSS
VL: AAVLTQTPSPVSVTVGGTVTINCQASQSVDNNNYLAWFQQKPGQPPKQLIYSASTLASGVSSRFKGSGSGTQFTLTISGVQCDDAATYYCLGEFSASSGDWNAFGGGTEVVVK
notes: also called control 81E11WTH
With B1, the EC50 came to 2.6 ng/mL.

For the origin of these results see patent US20260148804A1 (NANJING GENSCRIPT BIOTECH, published 2026).
